# T1: PCLO, Q9Y6V0
# T1 sequence (Q9Y6V0 4491-4600, limits assumed, looked up): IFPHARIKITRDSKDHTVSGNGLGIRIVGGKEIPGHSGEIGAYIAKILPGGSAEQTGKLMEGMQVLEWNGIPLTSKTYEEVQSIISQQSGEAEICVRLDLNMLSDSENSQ
# T2: GRIP1_3, Q9Y3R0
# T2 sequence (Q9Y3R0 247-346, limits assumed, looked up): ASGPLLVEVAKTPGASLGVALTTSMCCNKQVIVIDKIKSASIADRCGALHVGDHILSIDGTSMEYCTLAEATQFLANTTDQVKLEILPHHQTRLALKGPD
# T3: PDZD7_3, Q9H5P4
# T3 sequence (Q9H5P4 857-944, limits assumed, looked up): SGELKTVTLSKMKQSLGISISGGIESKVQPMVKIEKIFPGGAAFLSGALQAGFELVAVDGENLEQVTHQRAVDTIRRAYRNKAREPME
# T4: MPP6, Q9NZW5
# T4 sequence (Q9NZW5 125-219, limits assumed, looked up): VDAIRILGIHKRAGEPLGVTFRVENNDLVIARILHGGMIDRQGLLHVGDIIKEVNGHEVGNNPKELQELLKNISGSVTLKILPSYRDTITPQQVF
# T5: MPP7, Q5T2T1
# T5 sequence (Q5T2T1 134-230, limits assumed, looked up): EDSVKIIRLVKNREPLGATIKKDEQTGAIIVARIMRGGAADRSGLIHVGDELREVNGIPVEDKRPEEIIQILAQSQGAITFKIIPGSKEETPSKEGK
# T6: APBA1_2, Q02410
# T6 sequence (Q02410 742-832, limits assumed, looked up): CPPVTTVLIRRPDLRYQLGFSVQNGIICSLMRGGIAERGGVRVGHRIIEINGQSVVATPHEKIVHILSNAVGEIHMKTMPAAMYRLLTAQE
# T7: PDZD2_2, O15018
# T7 sequence (O15018 329-429, limits assumed, looked up): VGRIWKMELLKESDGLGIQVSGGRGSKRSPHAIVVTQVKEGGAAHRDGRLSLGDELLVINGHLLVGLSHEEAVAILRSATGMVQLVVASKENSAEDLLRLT
# T8: NHERF3_4, Q5T2W1
# T8 sequence (Q5T2W1 373-468, limits assumed, looked up): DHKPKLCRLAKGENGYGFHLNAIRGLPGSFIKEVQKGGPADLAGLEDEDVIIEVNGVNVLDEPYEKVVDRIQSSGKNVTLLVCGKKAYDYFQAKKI
# T9: LIN7B, Q9HAP6
# T9 sequence (Q9HAP6 88-185, limits assumed, looked up): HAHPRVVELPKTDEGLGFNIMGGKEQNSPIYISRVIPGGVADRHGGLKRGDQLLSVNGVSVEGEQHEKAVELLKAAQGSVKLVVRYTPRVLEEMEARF
# T10: GRIP1_4, Q9Y3R0
# T10 sequence (Q9Y3R0 467-571, limits assumed, looked up): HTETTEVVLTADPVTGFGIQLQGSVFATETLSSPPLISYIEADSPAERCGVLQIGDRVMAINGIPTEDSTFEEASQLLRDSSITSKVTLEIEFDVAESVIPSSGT
# T11: RADIL, Q96JH8
# T11 sequence (Q96JH8 971-1071, limits assumed, looked up): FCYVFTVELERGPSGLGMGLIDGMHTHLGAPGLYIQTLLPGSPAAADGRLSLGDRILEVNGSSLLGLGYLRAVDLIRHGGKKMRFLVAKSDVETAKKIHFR
# How the values were obtained:
# Experiment in all cases: holdup assay
# Design in all cases: key: below the threshold = too weak to quantify, mostly under pKd 3.1 to 4
# Conditions in all cases: plain residues with an end cap or a label only (N-terminal biotin on a linker: ttds)
# PCLO, Q9Y6V0 = target: T1, PCLO, Q9Y6V0
# GRIP1_3, Q9Y3R0 = target: T2, GRIP1_3, Q9Y3R0
# Inadl_2, Q8NI35 = target: Inadl_2, Q8NI35
# Inadl_2, Q8NI35, sequence (Q8NI35 238-335): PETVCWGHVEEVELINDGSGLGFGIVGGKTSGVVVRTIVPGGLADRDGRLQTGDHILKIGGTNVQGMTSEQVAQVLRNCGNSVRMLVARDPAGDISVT
# PDZD7_3, Q9H5P4 = target: T3, PDZD7_3, Q9H5P4
# LAP2, Q96RT1 = target: LAP2, Q96RT1
# LAP2, Q96RT1, sequence (Q96RT1 other isoform, or with tags, fused parts or gaps): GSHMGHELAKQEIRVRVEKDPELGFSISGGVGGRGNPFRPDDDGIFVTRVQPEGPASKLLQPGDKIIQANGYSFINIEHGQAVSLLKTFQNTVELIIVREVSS
# MPP6, Q9NZW5 = target: T4, MPP6, Q9NZW5
# MPP7, Q5T2T1 = target: T5, MPP7, Q5T2T1
# DLG1_1, Q12959 = target: DLG1_1, Q12959
# GRIP2_7, Q9C0E4 = target: GRIP2_7, Q9C0E4
# GRIP2_7, Q9C0E4, sequence (Q9C0E4 934-1023): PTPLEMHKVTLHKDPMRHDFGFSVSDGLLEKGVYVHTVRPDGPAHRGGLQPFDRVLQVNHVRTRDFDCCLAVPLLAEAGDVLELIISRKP
# APBA1_2, Q02410 = target: T6, APBA1_2, Q02410
# CASK, O14936 = target: CASK, O14936
# CASK, O14936, sequence (O14936 487-570): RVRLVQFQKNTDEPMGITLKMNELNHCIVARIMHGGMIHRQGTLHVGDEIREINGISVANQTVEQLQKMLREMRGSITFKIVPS
# PDZD2_2, O15018 = target: T7, PDZD2_2, O15018
# GIPC2, Q8TF65 = target: GIPC2, Q8TF65
# GIPC2, Q8TF65, sequence (Q8TF65 112-203): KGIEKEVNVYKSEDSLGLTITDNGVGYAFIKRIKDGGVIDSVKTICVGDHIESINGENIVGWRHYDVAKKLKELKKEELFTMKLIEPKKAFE
# NHERF3_4, Q5T2W1 = target: T8, NHERF3_4, Q5T2W1
# LNX1_1, Q8TBB1 = target: LNX1_1, Q8TBB1
# LNX1_1, Q8TBB1, sequence (Q8TBB1 261-371): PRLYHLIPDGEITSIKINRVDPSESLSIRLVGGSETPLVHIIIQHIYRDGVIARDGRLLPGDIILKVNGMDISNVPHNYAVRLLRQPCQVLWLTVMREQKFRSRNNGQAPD
# MAGI1_2, Q96QZ7 = target: MAGI1_2, Q96QZ7
# MAGI1_2, Q96QZ7, sequence (Q96QZ7 456-580): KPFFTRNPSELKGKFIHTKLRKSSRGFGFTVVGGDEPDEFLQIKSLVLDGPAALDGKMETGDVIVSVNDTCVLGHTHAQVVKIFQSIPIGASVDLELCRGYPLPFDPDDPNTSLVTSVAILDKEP
# GORASP1, Q9BQQ3 = target: GORASP1, Q9BQQ3
# GORASP1, Q9BQQ3, sequence (Q9BQQ3 1-208): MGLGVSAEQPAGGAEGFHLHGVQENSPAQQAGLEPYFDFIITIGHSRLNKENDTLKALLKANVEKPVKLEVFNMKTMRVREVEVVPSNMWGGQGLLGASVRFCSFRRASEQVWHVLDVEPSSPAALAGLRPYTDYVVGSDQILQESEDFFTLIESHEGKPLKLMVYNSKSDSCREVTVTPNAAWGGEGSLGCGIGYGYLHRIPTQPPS
# LNX1_3, Q8TBB1 = target: LNX1_3, Q8TBB1
# LNX1_3, Q8TBB1, sequence (Q8TBB1 500-596): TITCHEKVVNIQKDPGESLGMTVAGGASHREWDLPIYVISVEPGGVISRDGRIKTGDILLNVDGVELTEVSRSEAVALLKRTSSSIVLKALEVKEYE
# GRIP2_6, Q9C0E4 = target: GRIP2_6, Q9C0E4
# GRIP2_6, Q9C0E4, sequence (Q9C0E4 648-740): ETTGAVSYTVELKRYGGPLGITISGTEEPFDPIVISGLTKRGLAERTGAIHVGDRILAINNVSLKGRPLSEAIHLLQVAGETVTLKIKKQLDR
# FRMPD2_3, Q68DX3 = target: FRMPD2_3, Q68DX3
# FRMPD2_3, Q68DX3, sequence (Q68DX3 1073-1166): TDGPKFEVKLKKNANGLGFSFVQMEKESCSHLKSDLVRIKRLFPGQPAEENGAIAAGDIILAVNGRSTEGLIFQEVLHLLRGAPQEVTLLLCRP
# DLG4_3, P78352 = target: DLG4_3, P78352
# DLG4_3, P78352, sequence (P78352 306-403): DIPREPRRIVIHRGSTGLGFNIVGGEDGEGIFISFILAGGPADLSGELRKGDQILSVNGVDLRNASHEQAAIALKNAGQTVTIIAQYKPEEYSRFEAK
# LIN7B, Q9HAP6 = target: T9, LIN7B, Q9HAP6
# GRIP1_4, Q9Y3R0 = target: T10, GRIP1_4, Q9Y3R0
# MAGI2_4, Q86UL8 = target: MAGI2_4, Q86UL8
# MAGI2_4, Q86UL8, sequence (Q86UL8 772-865): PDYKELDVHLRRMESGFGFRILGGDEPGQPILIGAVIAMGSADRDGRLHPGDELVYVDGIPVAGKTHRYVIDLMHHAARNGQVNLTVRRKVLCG
# RADIL, Q96JH8 = target: T11, RADIL, Q96JH8
# FRMPD2_2, Q68DX3 = target: FRMPD2_2, Q68DX3
# FRMPD2_2, Q68DX3, sequence (Q68DX3 944-1038): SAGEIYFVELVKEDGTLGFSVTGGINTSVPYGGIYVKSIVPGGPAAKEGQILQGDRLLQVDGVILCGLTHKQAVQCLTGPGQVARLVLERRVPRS
# FRMPD2_1, Q68DX3 = target: FRMPD2_1, Q68DX3
# FRMPD2_1, Q68DX3, sequence (Q68DX3 770-861): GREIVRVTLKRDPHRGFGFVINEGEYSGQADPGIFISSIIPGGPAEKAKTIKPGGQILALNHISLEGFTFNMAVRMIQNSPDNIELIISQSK
Binder,"pKd (PCLO, Q9Y6V0)","pKd (GRIP1_3, Q9Y3R0)","pKd (Inadl_2, Q8NI35)","pKd (PDZD7_3, Q9H5P4)","pKd (LAP2, Q96RT1)","pKd (MPP6, Q9NZW5)","pKd (MPP7, Q5T2T1)","pKd (DLG1_1, Q12959)","pKd (GRIP2_7, Q9C0E4)","pKd (APBA1_2, Q02410)","pKd (CASK, O14936)","pKd (PDZD2_2, O15018)","pKd (GIPC2, Q8TF65)","pKd (NHERF3_4, Q5T2W1)","pKd (LNX1_1, Q8TBB1)","pKd (MAGI1_2, Q96QZ7)","pKd (GORASP1, Q9BQQ3)","pKd (LNX1_3, Q8TBB1)","pKd (GRIP2_6, Q9C0E4)","pKd (FRMPD2_3, Q68DX3)",further results
"KKYVDAETSL [SLC4A7, Q9Y6M7]",below the threshold,below the threshold,below the threshold,3.77,below the threshold,below the threshold,below the threshold,below the threshold,below the threshold,3.73,below the threshold,4.06,3.68,below the threshold,below the threshold,3.69,below the threshold,below the threshold,below the threshold,below the threshold,"pKd (DLG4_3, P78352): 3.59; pKd (LIN7B, Q9HAP6): 3.53; pKd (GRIP1_4, Q9Y3R0): below the threshold; pKd (MAGI2_4, Q86UL8): below the threshold; pKd (RADIL, Q96JH8): below the threshold; pKd (FRMPD2_2, Q68DX3): below the threshold; pKd (FRMPD2_1, Q68DX3): below the threshold"
"RHTTSTETAV [HPV30-E6, P36809]",below the threshold,below the threshold,below the threshold,4.1,4.46,below the threshold,below the threshold,4.93,3.84,4.23,below the threshold,4.42,3.96,below the threshold,below the threshold,4.39,below the threshold,below the threshold,3.77,3.87,"pKd (DLG4_3, P78352): 4.35; pKd (LIN7B, Q9HAP6): 3.71; pKd (GRIP1_4, Q9Y3R0): below the threshold; pKd (MAGI2_4, Q86UL8): 4.07; pKd (RADIL, Q96JH8): below the threshold; pKd (FRMPD2_2, Q68DX3): 4.23; pKd (FRMPD2_1, Q68DX3): 4.14"
"SSLQSLETSV [ATP2B4, P23634]",below the threshold,below the threshold,below the threshold,4.48,4.66,3.56,below the threshold,5,3.52,4.13,below the threshold,4.56,4.16,3.63,3.71,3.68,below the threshold,3.59,below the threshold,below the threshold,"pKd (DLG4_3, P78352): 4.65; pKd (LIN7B, Q9HAP6): 4.3; pKd (GRIP1_4, Q9Y3R0): below the threshold; pKd (MAGI2_4, Q86UL8): 4.19; pKd (RADIL, Q96JH8): 3.69; pKd (FRMPD2_2, Q68DX3): 4.64; pKd (FRMPD2_1, Q68DX3): 4.17"
"RLQRRRETQV [HPV18-E6, P06463]",below the threshold,below the threshold,below the threshold,3.98,3.61,below the threshold,below the threshold,5.26,below the threshold,below the threshold,below the threshold,3.36,below the threshold,below the threshold,below the threshold,5.97,below the threshold,below the threshold,below the threshold,below the threshold,"pKd (DLG4_3, P78352): 5.74; pKd (LIN7B, Q9HAP6): 3.58; pKd (GRIP1_4, Q9Y3R0): below the threshold; pKd (MAGI2_4, Q86UL8): 4.28; pKd (RADIL, Q96JH8): 3.28; pKd (FRMPD2_2, Q68DX3): below the threshold; pKd (FRMPD2_1, Q68DX3): 4.1"
"RLPKIKETTV [FRMPD4, Q14CM0]",below the threshold,below the threshold,below the threshold,5.01,3.87,below the threshold,below the threshold,5.12,below the threshold,below the threshold,below the threshold,4.05,below the threshold,below the threshold,below the threshold,4.49,below the threshold,below the threshold,3.39,below the threshold,"pKd (DLG4_3, P78352): 5.25; pKd (LIN7B, Q9HAP6): 4.52; pKd (GRIP1_4, Q9Y3R0): below the threshold; pKd (MAGI2_4, Q86UL8): 4.24; pKd (RADIL, Q96JH8): below the threshold; pKd (FRMPD2_2, Q68DX3): below the threshold; pKd (FRMPD2_1, Q68DX3): below the threshold"

# Source: article PMC9482650, “Quantitative fragmentomics allow affinity mapping of interactomes” (Nature Communications, 2022)
